Test results taken from IntAct's records for PubMed 22835334.

B1: Huntingtin-interacting protein 1 (Homo sapiens), O00291 (parent)
chain: MDRMASSMKQVPNPLPKVLSRRGVGAGLEAAERESFERTQTVSINKAINTQEVAVKEKHARTCILGTHHEKGAQTFWSVVNRLPLSSNAVLCWKFCHVFHKLLRDGHPNVLKDSLRYRNELSDMSRMWGHLSEGYGQLCSIYLKLLRTKMEYHTKNPRFPGNLQMSDRQLDEAGESDVNNFFQLTVEMFDYLECELNLFQTVFNSLDMSRSVSVTAAGQCRLAPLIQVILDCSHLYDYTVKLLFKLHSCLPADTLQGHRDRFMEQFTKLKDLFYRSSNLQYFKRLIQIPQLPENPPNFLRASALSEHISPVVVIPAEASSPDSEPVLEKDDLMDMDASQQNLFDNKFDDIFGSSFSSDPFNFNSQNGVNKDEKDHLIERLYREISGLKAQLENMKTESQRVVLQLKGHVSELEADLAEQQHLRQQAADDCEFLRAELDELRRQREDTEKAQRSLSEIERKAQANEQRYSKLKEKYSELVQNHADLLRKNAEVTKQVSMARQAQVDLEREKKELEDSLERISDQGQRKTQEQLEVLESLKQELATSQRELQVLQGSLETSAQSEANWAAEFAELEKERDSLVSGAAHREEELSALRKELQDTQLKLASTEESMCQLAKDQRKMLLVGSRKAAEQVIQDALNQLEEPPLISCAGSADHLLSTVTSISSCIEQLEKSWSQYLACPEDISGLLHSITLLAHLTSDAIAHGATTCLRAPPEPADSLTEACKQYGRETLAYLASLEEEGSLENADSTAMRNCLSKIKAIGEELLPRGLDIKQEELGDLVDKEMAATSAAIETATARIEEMLSKSRAGDTGVKLEVNERILGCCTSLMQAIQVLIVASKDLQREIVESGRGTASPKEFYAKNSRWTEGLISASKAVGWGATVMVDAADLVVQGRGKFEELMVCSHEIAASTAQLVAASKVKADKDSPNLAQLQQASRGVNQATAGVVASTISGKSQIEETDNMDFSSMTLTQIKRQEMDSQVRVLELENELQKERQKLGELRKKHYELAGVAEGWEEGTEASPPTLQEVVTEKE

Variants of: B1
Conditions: with hd_human HTT

effect of a mutation on the interaction	Variant
increasing interaction	T528L
increasing interaction	K510L
